Assay results taken from publication PMC5352116.

Molecular target: Death Receptor 5 (DR5) (human (endogenous in MCF-10A-Tr)), O14763
Assay: co-IP; DISC analysis: MCF-10A-Tr cells untreated or treated with QC, TRAIL or TRAIL (10 ng/mL, 3 h) then QC (2.5 uM, 48 h); RIPA lysate, pre-cleared with sepharose-4B beads, immunoprecipitated with anti-DR5 antibody at 4°C overnight; western blot
Settings: remark: other sources report otherwise

B1: CASPASE 8, Q14790 1-479 (enzyme)
chain: MDFSRNLYDIGEQLDSEDLASLKFLSLDYIPQRKQEPIKDALMLFQRLQEKRMLEESNLSFLKELLFRINRLDLLITYLNTRKEEMERELQTPGRAQISAYRVMLYQISEEVSRSELRSFKFLLQEEISKCKLDDDMNLLDIFIEMEKRVILGEGKLDILKRVCAQINKSLLKIINDYEEFSKERSSSLEGSPDEFSNGEELCGVMTISDSPREQDSESQTLDKVYQMKSKPRGYCLIINNHNFAKAREKVPKLHSIRDRNGTHLDAGALTTTFEELHFEIKPHDDCTVEQIYEILKIYQLMDHSNMDCFICCILSHGDKGIIYGTDGQEAPIYELTSQFTGLKCPSLAGKPKVFFIQACQGDNYQKGIPVETDSEEQPYLEMDLSSPQTRYIPDEADFLLGMATVNNCVSYRNPAEGTWYIQSLCQSLRERCPRGDDILTILTEVNYEVSNKDDKKNMGKQMPQPTFTLRKKLVFPSD
B1 gave a fold level in the DISC (anti-DR5 immunoprecipitate), TRAIL+QC treated against untreated cells of 7 fold.
